Legend:
Assay in all cases: pull-down binding Z-score (relative to library population); higher = stronger binding
[1] = system: TO-3-N3-2 (biotin conjugate); conditions: RNA library: Library-2
Summary of the method: (§1)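 A heat-folded, dye-end-labelled (Cy5 or Cy3) RNA library (1 μg, phosphate/NaCl/KCl buffer) was exposed for 60 min at 25 °C to streptavidin beads holding 100 pmol of biotin-conjugated small molecule. RNA retained on the beads was eluted in hot SDS and hybridised to a DNA barcode microarray for 20 h at 55.5 °C. Binding scores were Z-scores against the library mean and standard deviation, calculated after subtracting beads alone and taking trimmed means of replicate probes.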

[2] = system: G-clamp-N3 (biotin conjugate); conditions: RNA library: Library-1 (pre-miRNA loops + repeats)
Summary of the method: as §1

[3] = system: TO-3-N3 (biotin conjugate); conditions: RNA library: Library-2
Summary of the method: as §1

[4] = system: TO-N3-2 (biotin conjugate); conditions: RNA library: Library-2
Summary of the method: as §1

TO-N3 (biotin conjugate) = conditions: RNA library: Library-2
Summary of the method: as §1

| Sequence | pull-down binding Z-score [1] | pull-down binding Z-score [2] | pull-down binding Z-score [3] | pull-down binding Z-score [4] | pull-down binding Z-score (TO-N3 (biotin conjugate)) |
| --- | --- | --- | --- | --- | --- |
| UACAUAGUUCAUGCUGAGGCCGGGAUUUCAUGCAGAAAACUGGUUGCAAAAGGUGCUGAAG [hsa-mir-6085] | 0.378 | -0.725 | -0.189 | 1.13 | 0.573 |
| UACUAACAGCACUGGAGGGUGUA [hsa-mir-142] | 0.107 | 2.68 | -0.0529 | 0.533 | 0.114 |
| UAGACAAUGGUUUCAUCAUUUCGUCUG [hsa-mir-4427] | -0.103 | -0.055 | -0.317 | -0.052 | -0.379 |
| UAGAGGGUAAAAUUAAUAACCUUCUA [hsa-mir-628] | 0.114 | 0.0533 | 0.214 | -0.888 | -0.152 |
| UAGAGUAGGAGAGCCCACUGA [hsa-mir-6846] | 0.147 | 0.203 | 0.712 | 1.21 | 1.28 |
| UAGAUACUCAGGAGGGUGAGUAUCUA [hsa-mir-5689] | -0.33 | 1.64 | -0.511 | -0.726 | -0.797 |
| UAGAUGAAUAAAUGAAUGACUCAUCA [hsa-mir-545] | 0.146 | -0.383 | -0.346 | -0.21 | -0.414 |
| UAGAUGUUAUAAAAAUAUAUAUCUG [hsa-mir-4680] | -0.189 | 0.187 | -0.708 | -1.07 | -1.08 |
| UAGGAGCUGUGCCUCCUGGCCUAUUCCUGUUCGUG [hsa-mir-8056] | -0.167 | 0.294 | -0.344 | 0.623 | 0.0941 |
| UAGGAUUUGGGAGUUAUACUA [hsa-mir-5690] | -0.0337 | 0.541 | -0.528 | -0.349 | -0.492 |
| UAGGCCCACUGCUCAGUGGAGC [hsa-mir-7847] | -0.0119 | 0.533 | -0.238 | 0.845 | 0.139 |
| UAGGCUGUGCAGGUCCCAAUGGGCCUA [hsa-mir-26a-1] | -0.0454 | 1.56 | 0.169 | 0.528 | 0.151 |
| UAGGCUGUUUCCAUCUGUGAGGCCUA [hsa-mir-26a-2] | -0.375 | -0.141 | -0.164 | -0.00853 | -0.233 |
| UAGGGCGCGGAGGGCGGACCGGGAA [hsa-mir-638] | 6.57 | 0.973 | 5.36 | 4.4 | 5.19 |
| UAGGGCUGGAUGGUAGGGCCCA [hsa-mir-6890] | 0.343 | 2.15 | 0.343 | 1.13 | 0.642 |
| UAGGUGGUCGAAGUCAUCCACA [hsa-mir-7153] | 0.264 | -0.765 | -0.108 | 0.498 | 0.131 |
| UAGGUUGUGUGCUGUCCAGCCUG [hsa-mir-26b] | -0.429 | -0.497 | -0.484 | 0.271 | -0.388 |
| UAGGUUGUUAUUUAAUCCAACU [hsa-mir-190a] | -0.00409 | -1 | -0.24 | -0.661 | -0.267 |

— the supplement of paper PMC11865577
